± gives the standard deviation of the averaged measurements.
Key:
hTERT-HMEC = experiment: percentage of EdU-negative (G0-arrested) nuclei per well, 72 h; higher = more G0 arrest; details: reference: sequence is the full UniProt precursor, the tested protein was the secreted form or ectodomain
MCF7 = experiment: as above; details: reference: sequence is the full UniProt precursor, the tested protein was the secreted form or ectodomain
[1] = protein concentration 0.01525 µM
[2] = protein concentration 0.1525 µM
[3] = protein concentration 0.0225 µM
[4] = protein concentration 0.0294675 µM
[5] = protein concentration 0.294675 µM
[6] = protein concentration 0.01625 µM
[7] = protein concentration 0.1625 µM
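Also: secreted proteins added to cultured cells, EdU pulse at the end, nuclei found by Hoechst imaging, EdU status from nuclear versus surrounding ring intensity ratio, PBS as neutral control.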

Sequence: MWATLPLLCAGAWLLGVPVCGAAELCVNSLEKFHFKSWMSKHRKTYSTEEYHHRLQTFASNWRKINAHNNGNHTFKMALNQFSDMSFAEIKHKYLWSEPQNCSATKSNYLRGTGPYPPSVDWRKKGNFVSPVKNQGACGSCWTFSTTGALESAIAIATGKMLSLAEQQLVDCAQDFNNHGCQGGLPSQAFEYILYNKGIMGEDTYPYQGKDGYCKFQPGKAIGFVKDVANITIYDEEAMVEAVALYNPVSFAFEVTQDFMMYRTGIYSSTSCHKTPDKVNHAVLAVGYGEKNGIPYWIVKNSWGPQWGMNGYFLIERGKNMCGLAACASYPIPLV
- percentage of EdU-negative (hTERT-HMEC; [1]): 5.31 ± 0.13%
- percentage of EdU-negative (hTERT-HMEC; [2]): 8.87 ± 0.59%
- percentage of EdU-negative (MCF7; [1]): 27 ± 2.4%
- percentage of EdU-negative (MCF7; [2]): 29.3 ± 4.1%

Sequence: MRARRGLLRLPRRSLLAALFFFSLSSSLLYFVYVAPGIVNTYLFMMQAQGILIRDNVRTIGAQVYEQVLRSAYAKRNSSVNDSDYPLDLNHSETFLQTTTFLPEDFTYFANHTCPERLPSMKGPIDINMSEIGMDYIHELFSKDPTIKLGGHWKPSDCMPRWKVAILIPFRNRHEHLPVLFRHLLPMLQRQRLQFAFYVVEQVGTQPFNRAMLFNVGFQEAMKDLDWDCLIFHDVDHIPESDRNYYGCGQMPRHFATKLDKYMYLLPYTEFFGGVSGLTVEQFRKINGFPNAFWGWGGEDDDLWNRVQNAGYSVSRPEGDTGKYKSIPHHHRGEVQFLGRYALLRKSKERQGLDGLNNLNYFANITYDALYKNITVNLTPELAQVNEY
- percentage of EdU-negative (hTERT-HMEC; protein concentration 0.016 µM): 5.58 ± 0.37%
- percentage of EdU-negative (hTERT-HMEC; protein concentration 0.16 µM): 20.8 ± 1.2%
- percentage of EdU-negative (MCF7; protein concentration 0.016 µM): 24.5 ± 0.93%
- percentage of EdU-negative (MCF7; protein concentration 0.16 µM): 30.8 ± 1.6%

Sequence: MAAFPHKIIFFLVCSTLTHVAFSGIFNKRDFTRWPKPRCKMYIPLDPDYNADCPNVTAPVCASNGHTFQNECFFCVEQREFHYRIKFEKYGKCD [Q1W4C9]
- percentage of EdU-negative (hTERT-HMEC; [3]): 5.06 ± 0.42%
- percentage of EdU-negative (hTERT-HMEC; protein concentration 0.225 µM): 7.07 ± 0.77%
- percentage of EdU-negative (MCF7; [3]): 26.8 ± 1.7%
- percentage of EdU-negative (MCF7; protein concentration 0.225 µM): 27.7 ± 0.31%

Sequence: MRAWIFFLLCLAGRALAAPQQEALPDETEVVEETVAEVTEVSVGANPVQVEVGEFDDGAEETEEEVVAENPCQNHHCKHGKVCELDENNTPMCVCQDPTSCPAPIGEFEKVCSNDNKTFDSSCHFFATKCTLEGTKKGHKLHLDYIGPCKYIPPCLDSELTEFPLRMRDWLKNVLVTLYERDEDNNLLTEKQKLRVKKIHENEKRLEAGDHPVELLARDFEKNYNMYIFPVHWQFGQLDQHPIDGYLSHTELAPLRAPLIPMEHCTTRFFETCDLDNDKYIALDEWAGCFGIKQKDIDKDLVI
- percentage of EdU-negative (hTERT-HMEC; [4]): 4.83 ± 0.18%
- percentage of EdU-negative (hTERT-HMEC; [5]): 5.23 ± 0.79%
- percentage of EdU-negative (MCF7; [4]): 26.73 ± 0.018%
- percentage of EdU-negative (MCF7; [5]): 24.8 ± 0.39%

Sequence: MASEIHMTGPMCLIENTNGRLMANPEALKILSAITQPMVVVAIVGLYRTGKSYLMNKLAGKKKGFSLGSTVQSHTKGIWMWCVPHPKKPGHILVLLDTEGLGDVEKGDNQNDSWIFALAVLLSSTFVYNSIGTINQQAMDQLYYVTELTHRIRSKSSPDENENEVEDSADFVSFFPDFVWTLRDFSLDLEADGQPLTPDEYLTYSLKLKKGTSQKDETFNLPRLCIRKFFPKKKCFVFDRPVHRRKLAQLEKLQDEELDPEFVQQVADFCSYIFSNSKTKTLSGGIQVNGPRLESLVLTYVNAISSGDLPCMENAVLALAQIENSAAVQKAIAHYEQQMGQKVQLPTETLQELLDLHRDSEREAIEVFIRSSFKDVDHLFQKELAAQLEKKRDDFCKQNQEASSDRCSALLQVIFSPLEEEVKAGIYSKPGGYRLFVQKLQDLKKKYYEEPRKGIQAEEILQTYLKSKESMTDAILQTDQTLTEKEKEIEVERVKAESAQASAKMLQEMQRKNEQMMEQKERSYQEHLKQLTEKMENDRVQLLKEQERTLALKLQEQEQLLKEGFQKESRIMKNEIQDLQTKMRRRKACTIS
- percentage of EdU-negative (hTERT-HMEC; [3]): 4.44 ± 0.5%
- percentage of EdU-negative (hTERT-HMEC; protein concentration 0.225 µM): 12.6 ± 1.4%
- percentage of EdU-negative (MCF7; [3]): 26.5 ± 3.6%
- percentage of EdU-negative (MCF7; protein concentration 0.225 µM): 29.1 ± 1.2%

Sequence: MICLVLTIFANLFPAACTGAHERTFLAVKPDGVQRRLVGEIVRRFERKGFKLVALKLVQASEELLREHYAELRERPFYGRLVKYMASGPVVAMVWQGLDVVRTSRALIGATNPADAPPGTIRGDFCIEVGKNLIHGSDSVESARREIALWFRADELLCWEDSAGHWLYE
- percentage of EdU-negative (hTERT-HMEC; [3]): 4.25 ± 0.15%
- percentage of EdU-negative (hTERT-HMEC; protein concentration 0.225 µM): 5.77 ± 0.68%
- percentage of EdU-negative (MCF7; [3]): 25.5 ± 3.9%
- percentage of EdU-negative (MCF7; protein concentration 0.225 µM): 22.9 ± 1.8%

Sequence: MEVTCLLLLALIPFHCRGQGVYAPAQAQIVHAGQACVVKEDNISERVYTIREGDTLMLQCLVTGHPRPQVRWTKTAGSASDKFQETSVFNETLRIERIARTQGGRYYCKAENGVGVPAIKSIRVDVQYLDEPMLTVHQTVSDVRGNFYQEKTVFLRCTVNSNPPARFIWKRGSDTLSHSQDNGVDIYEPLYTQGETKVLKLKNLRPQDYASYTCQVSVRNVCGIPDKAITFRLTNTTAPPALKLSVNETLVVNPGENVTVQCLLTGGDPLPQLQWSHGPGPLPLGALAQGGTLSIPSVQARDSGYYNCTATNNVGNPAKKTVNLLVRSMKNATFQITPDVIKESENIQLGQDLKLSCHVDAVPQEKVTYQWFKNGKPARMSKRLLVTRNDPELPAVTSSLELIDLHFSDYGTYLCMASFPGAPVPDLSVEVNISSETVPPTISVPKGRAVVTVREGSPAELQCEVRGKPRPPVLWSRVDKEAALLPSGLPLEETPDGKLRLERVSRDMSGTYRCQTARYNGFNVRPREAQVQLNVQFPPEVEPSSQDVRQALGRPVLLRCSLLRGSPQRIASAVWRFKGQLLPPPPVVPAAAEAPDHAELRLDAVTRDSSGSYECSVSNDVGSAACLFQVSAKAYSPEFYFDTPNPTRSHKLSKNYSYVLQWTQREPDAVDPVLNYRLSIRQLNQHNAVVKAIPVRRVEKGQLLEYILTDLRVPHSYEVRLTPYTTFGAGDMASRIIHYTEPINSPNLSDNTCHFEDEKICGYTQDLTDNFDWTRQNALTQNPKRSPNTGPPTDISGTPEGYYMFIETSRPRELGDRARLVSPLYNASAKFYCVSFFYHMYGKHIGSLNLLVRSRNKGALDTHAWSLSGNKGNVWQQAHVPISPSGPFQIIFEGVRGPGYLGDIAIDDVTLKKGECPRKQTDPNKVVVMPGSGAPCQSSPQLWGPMAIFLLALQR [Q8NFP4]
- percentage of EdU-negative (hTERT-HMEC; [6]): 4.84 ± 1.1%
- percentage of EdU-negative (hTERT-HMEC; [7]): 5.63 ± 0.16%
- percentage of EdU-negative (MCF7; [6]): 25.1 ± 2%
- percentage of EdU-negative (MCF7; [7]): 26.2 ± 1.5%

Reference: the supplement of paper PMC11316812
